Test results taken from patent publication US20260265403A1 (TJ BIOPHARMA SHANGHAI, published 2026).
Numbering of substitutions follows the chain as printed.

T1: human CD24 on cells (human, UniProt P25063 27-59)
T1 chain (looked up): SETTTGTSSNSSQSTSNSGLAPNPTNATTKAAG

T2: Human CD24 (human, UniProt P25063 27-59, limits assumed)
T2 chain (looked up): T1 chain (looked up)

T3: CD24-his protein (human, UniProt P25063 27-59, posttranslational modification (purified from mammalian cell))
T3 construct: Purified from mammalian (HEK293) cells; also called soluble recombinant CD24 protein; human HEK293 purified CD24-his protein; not shown: His tag
T3 chain (looked up): T1 chain (looked up)

B1: 85-D5A10 (4434), IgG4, Kappa (antibody, V domains shown)
VH: EVQLQQSGPELVKPGASVKISCKASGYEFTGYHMNWVKQSPEKSLEWIGEINPITSDKTFNQKFKAKATLTVDRSSSTAYMHLKSLTSDDSAVYYCARRDYGTSLDYWGQGTTLTVSS
VL: DVQITQSPSYLAASPGETITIYCRASKSISKYLAWYQEKPEKTIRLLIYAGSTLQSGIPSRFRGSGSGKDFTLTVSGLEPEDFAMYYCQQHNEYPITFGAGTKLELI
B2: 74-H4C6 (4451), IgG4, Kappa (antibody, V domains shown)
VH: B1 VH with E28D, A66S, H82Y, D89E
VL: B1 VL with I44N, Q55H, I107K
B3: 89-E8C12 (4428), IgG4, Kappa (antibody, V domains shown)
VH: B1 VH with E28D, H33Y, V37M, D57H, K58N, D89E
VL: B1 VL with K69T, I96L, I107K
B4: VH1 + VL3 (4451H) (antibody, V domains shown)
VH: QVQLVQSGAEVKKPGASVKVSCKASGYDFTGYHMNWVRQAPGQGLEWMGEINPITSDKTFNQKFKSRVTMTRDTSISTAYMELSRLRSDDTAVYYCARRDYGTSLDYWGQGTTVTVSS
VL: DIQLTQSPSFLSASVGDRVTITCRASKSISKYLAWYQQKPGKAPKLLIYAGSTLHSGIPSRFRGSGSGTEFTLTISSLQPEDFATYYCQQHNEYPITFGQGTKLEIK
notes: also called Antibody No 0; Parental
B5: VH4 + VL2 (humanized 4451) (antibody, V domains shown)
VH: B4 VH with R38K, M48I, V68A, R72V, T74R
VL: B4 VL with K45R, I58V
notes: IgG expressed in HEK293
B6: VH1 + VL4 (humanized 4451) (antibody, V domains shown)
VH: B4 VH
VL: B4 VL with T22Y, K45R
notes: IgG expressed in HEK293
B7: VH2 + VL1 (humanized 4451) (antibody, V domains shown)
VH: B4 VH with M48I, R72V
VL: B4 VL with I58V, R63S
notes: IgG expressed in HEK293
B8: VH3 + VL1 (humanized 4451) (antibody, V domains shown)
VH: B4 VH with M48I, V68A, R72V
VL: B4 VL with I58V, R63S
notes: IgG expressed in HEK293
B9: VH3 + VL3 (humanized 4451) (antibody, V domains shown)
VH: B4 VH with M48I, V68A, R72V
VL: B4 VL
notes: IgG expressed in HEK293
B10: VH3 + VL4 (humanized 4451) (antibody, V domains shown)
VH: B4 VH with M48I, V68A, R72V
VL: B4 VL with T22Y, K45R
notes: IgG expressed in HEK293
B11: VH1 + VL2 (humanized 4451) (antibody, V domains shown)
VH: B4 VH
VL: B4 VL with K45R, I58V
notes: IgG expressed in HEK293
B12: VH2 + VL3 (humanized 4451) (antibody, V domains shown)
VH: B4 VH with M48I, R72V
VL: B4 VL
notes: IgG expressed in HEK293
B13: VH4 + VL1 (humanized 4451) (antibody, V domains shown)
VH: B4 VH with R38K, M48I, V68A, R72V, T74R
VL: B4 VL with I58V, R63S
notes: IgG expressed in HEK293
B14: VH4 + VL3 (humanized 4451) (antibody, V domains shown)
VH: B4 VH with R38K, M48I, V68A, R72V, T74R
VL: B4 VL
notes: IgG expressed in HEK293
B15: VH3 + VL2 (humanized 4451) (antibody, V domains shown)
VH: B4 VH with M48I, V68A, R72V
VL: B4 VL with K45R, I58V
notes: IgG expressed in HEK293
B16: 4451HM15-IgG4 (antibody, V domains shown)
VH: B4 VH with N35G, T59Y
VL: B4 VL with K27A
notes: IgG4; also called IgG4 isoform of 4451HM15

Target: T1, human CD24 on cells
Test: cell-based or functional assay

Binder	EC50 of Phagocytosis assay, IgG4, Kappa; HEK293-CD24	EC50 of Phagocytosis assay, IgG4, Kappa; MCF-7	EC50 of Phagocytosis assay, IgG4, Kappa; NALM6	EC50 of Phagocytosis assay, IgG4, Kappa; OVCAR3
B1	0.42 µg/mL	0.43 µg/mL	0.47 µg/mL	0.38 µg/mL
B2	0.44 µg/mL	0.74 µg/mL	0.32 µg/mL	0.16 µg/mL
B3	0.43 µg/mL	0.96 µg/mL	0.57 µg/mL	0.16 µg/mL

Target: T2, Human CD24
Test: affinity ranking; antibody as ligand, Human CD24 as analyte

Binder	apparent Kd (pooled screen)	apparent koff (pooled screen)	apparent kon (pooled screen)	Kd	koff	kon
B4	23.1 nM	0.0158 s⁻¹	685000 M⁻¹ s⁻¹	–	–	–
B5	–	–	–	9 nM	0.0115 s⁻¹	1.28e+06 M⁻¹ s⁻¹
B6	–	–	–	15 nM	0.0241 s⁻¹	1.61e+06 M⁻¹ s⁻¹
B7	–	–	–	20.9 nM	0.0264 s⁻¹	1.26e+06 M⁻¹ s⁻¹
B8	–	–	–	26 nM	0.0294 s⁻¹	1.13e+06 M⁻¹ s⁻¹
B9	–	–	–	23.8 nM	0.027 s⁻¹	1.13e+06 M⁻¹ s⁻¹
B10	–	–	–	24.8 nM	0.0163 s⁻¹	655000 M⁻¹ s⁻¹
B11	–	–	–	13.8 nM	0.0239 s⁻¹	1.74e+06 M⁻¹ s⁻¹
B12	–	–	–	19.4 nM	0.023 s⁻¹	1.18e+06 M⁻¹ s⁻¹
B13	–	–	–	8.33 nM	0.0128 s⁻¹	1.54e+06 M⁻¹ s⁻¹
B14	–	–	–	8.84 nM	0.0119 s⁻¹	1.34e+06 M⁻¹ s⁻¹
B15	–	–	–	23.7 nM	0.0262 s⁻¹	1.1e+06 M⁻¹ s⁻¹

Target: T1, human CD24 on cells
Test: flow cytometry (MFI), NALM6 cells [Cont'd) B]

Binder	EC50 (read off the curve)
B1	~0.4 µg/mL
B2	~0.4 µg/mL
B3	~0.5 µg/mL

Target: T1, human CD24 on cells
Test: flow cytometry (MFI), MCF-7 cells [Cont'd) B]

Binder	EC50 (read off the curve)
B1	~0.4 µg/mL

Target: T2, Human CD24
Test: SPR, second 1:1 binding column set

Binder	apparent Kd (pooled screen)	apparent koff (pooled screen)	apparent kon (pooled screen)
B4	25.1 nM	0.0192 s⁻¹	763000 M⁻¹ s⁻¹

Target: T2, Human CD24
Test: SPR affinity ranking, 1:1 binding, analyte conc. 19.71 nM

Binder	apparent Kd (pooled screen)	apparent koff (pooled screen)	apparent kon (pooled screen)
B4	172 nM	0.0275 s⁻¹	160000 M⁻¹ s⁻¹

Target: T1, human CD24 on cells
Test: flow cytometry (GMFI), MCF-7 cells; EC50 table under the graphs

Binder	EC50
B4	0.39 µg/mL
B5	0.44 µg/mL
B6	0.4 µg/mL
B7	0.45 µg/mL
B8	0.42 µg/mL
B9	0.42 µg/mL
B10	0.41 µg/mL
B11	0.4 µg/mL
B12	0.42 µg/mL
B13	0.45 µg/mL
B14	0.45 µg/mL
B15	0.52 µg/mL

Target: T3, CD24-his protein
Test: Siglec10-PE competition assay (gMFI on the sheet); legend: Siglec-10-his-Biotin mixed with the antibody, plate coated with CD24 protein
Procedure: Samples were washed three times with washing buffer. And then signal was tested.
CD24-his protein was firstly coated in 96-well plate overnight.

Binder	IC50 (read off the curve)
B16	~1 µg/mL

Target: T1, human CD24 on cells
Test: flow cytometry (GMFI), SKOV3 cells; EC50 table under the graphs [Cont'd) B]

Binder	EC50
B4	0.44 µg/mL
B5	0.43 µg/mL
B6	0.43 µg/mL
B7	0.45 µg/mL
B8	0.42 µg/mL
B9	0.42 µg/mL
B10	0.42 µg/mL
B11	0.38 µg/mL
B12	0.42 µg/mL
B13	0.43 µg/mL
B14	0.44 µg/mL
B15	0.52 µg/mL
